B1: iPAK4 (fusion of the catalytic domain of the Pak4 kinase and the 38 amino acid iBox domain of its inhibitor Inka1) (other)
chain: MDYKDDDDKSGSEAEDWTAALLNRGRSRQPLVLGDNCFADLVHNWMELPEEFPAAPAVPGPPGPRSPQREPQRVSHEQFRAALQLVVDPGDPRSYLDNFIKIGEGSTGIVCIATVRSSGKLVAVKKMDLRKQQRRELLFNEVVIMRDYQHENVVEMYNSYLVGDELWVVMEFLEGGALTDIVTHTRMNEEQIAAVCLAVLQALSVLHAQGVIHRDIKSDSILLTHDGRVKLSDFGFCAQVSKEVPRRKSLVGTPYWMAPELISRLPYGPEVDIWSLGIMVIEMVDGEPPYFNEPPLKAMKMIRDNLPPRLKNLHKVSPSLKGFLDRLLVRDPAQRATAAELLKHPFLAKAGPPASIVPLMRQNRTR
notes: also called ibox-PAK4cat; CMV::iPAK4
B2: HaloTag-iPAK4 (other)
chain: MIGTGFPFDPHYVEVLGERMHYVDVGPRDGTPVLFLHGNPTSSYVWRNIIPHVAPTHRCIAPDLIGMGKSDKPDLGYFFDDHVRFMDAFIEALGLEEVVLVIHDWGSALGFHWAKRNPERVKGIAFMEFIRPIPTWDEWPEFARETFQAFRTTDVGRKLIIDQNVFIEGTLPMGVVRPLTEVEMDHYREPFLNPVDREPLWRFPNELPIAGEPANIVALVEEYMDWLHQSPVPKLLFWGTPGVLIPPAEAARLAKSLPNCKAVDIGPGLNLLQEDNPDLIGSEIARWLSTLEISGEPTTSGSEAEDWTAALLNRGRSRQPLVLGDNCFADLVHNWMELPEEFPAAPAVPGPPGPRSPQREPQRVSHEQFRAALQLVVDPGDPRSYLDNFIKIGEGSTGIVCIATVRSSGKLVAVKKMDLRKQQRRELLFNEVVIMRDYQHENVVEMYNSYLVGDELWVVMEFLEGGALTDIVTHTRMNEEQIAAVCLAVLQALSVLHAQGVIHRDIKSDSILLTHDGRVKLSDFGFCAQVSKEVPRRKSLVGTPYWMAPELISRLPYGPEVDIWSLGIMVIEMVDGEPPYFNEPPLKAMKMIRDNLPPRLKNLHKVSPSLKGFLDRLLVRDPAQRATAAELLKHPFLAKAGPPASIVPLMRQNRTR
notes: also called HT-iPAK4; CMV::HT-iPAK4

Assays:
[1] = target: the molecule itself; assay: time-lapse fluorescence microscopy of intracellular self-assembly in cultured rat hippocampal neurons
[2] = target: B1; assay: co-expression in HEK cells; fluorescence imaging of HT-iPAK4 incorporated into iPAK4 assemblies
Protocol: To assess the suitability of iPAK4 assemblies as a recording medium, a detailed characterization of their nucleation and growth was performed. CMV::iPAK4 (90%), CMV::eGFP-iPAK4 (5%), and CMV::HT-iPAK4 (5%) were co-expressed in HEK cells using lentiviral transduction, and JF₆₆₉ was added to the medium to label the HT. Time-lapse video microscopy was recorded over a 13 hour interval starting 1 hour after transfection, and over 43 hours starting 20 hours after transfection. The fluorescence of the cytoplasm and the growth of individual assemblies was then tracked. Initially, green (eGFP) and red (HT-JF₆₆₉) fluorescence accumulated in the cytoplasm. Upon nucleation, assemblies grew quickly (˜0.5 μm/min) at first, while the cytoplasmic fluorescence dropped. This phase typically lasted approximately 1 h. The assemblies then transitioned to slower linear growth (FIG. 1E). […] A simple mass-action kinetic model predicted the two-phase growth profiles and quantitatively reproduced the observed growth profiles (Calculation 1, FIGS. 7A-7E).

Binder	binding result [1]	binding result [2]
B1	binds	
B2		binds
